Measured values from PMC11931385, “Structural and functional analysis of cancer-associated missense variants in the retinoblastoma protein pocket domain” (The Journal of Biological Chemistry, 2025).
Where a chain is given by its changes, count along the chain named. Names may count otherwise. No end group written: not given here. TMR = tetramethyl rhodamine dye

How the values were obtained:
Assay in all cases: fluorescence polarisation; 25 °C; unlabeled Rb^P titrated against 1.5 nM TMR-E2F1^TD or 7.5 nM TMR-E7^LxCxE; 25 mM Tris pH 8.0, 200 mM NaCl, 1 mM DTT, 0.1% Tween-20; 2 min incubation; quadratic fit; apparent Kd for the variants, Kd for WT
Conditions in all cases: both partners purified
[1] = target: T1, Rb^P S474R (human, UniProt P06400 380-788, S474R)
T1 construct: also called variant 13
T1 sequence (looked up): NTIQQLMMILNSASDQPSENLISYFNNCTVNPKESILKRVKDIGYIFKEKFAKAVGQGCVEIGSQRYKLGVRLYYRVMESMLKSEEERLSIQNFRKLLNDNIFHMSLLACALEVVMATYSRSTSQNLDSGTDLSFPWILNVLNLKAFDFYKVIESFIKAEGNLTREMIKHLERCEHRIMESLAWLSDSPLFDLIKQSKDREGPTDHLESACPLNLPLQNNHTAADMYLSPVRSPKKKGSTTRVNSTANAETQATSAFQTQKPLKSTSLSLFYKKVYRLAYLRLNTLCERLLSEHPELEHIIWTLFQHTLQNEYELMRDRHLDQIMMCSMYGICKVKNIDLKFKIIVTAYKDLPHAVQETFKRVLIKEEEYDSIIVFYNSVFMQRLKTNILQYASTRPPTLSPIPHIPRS

[2] = target: T2, Rb^P A525G (human, UniProt P06400 380-788, A525G)
T2 construct: also called variant 20
T2 sequence (looked up): T1 sequence (looked up) with R95S, A146G

[3] = target: T3, Rb^P E533K (human, UniProt P06400 380-788, E533K)
T3 construct: also called variant 22
T3 sequence (looked up): T1 sequence (looked up) with R95S, E154K

[4] = target: T4, Rb^P R621S (human, UniProt P06400 380-788, R621S)
T4 construct: also called variant 44
T4 sequence (looked up): T1 sequence (looked up) with R95S, R242S

[5] = target: T5, Rb^P K462E (human, UniProt P06400 380-788, K462E)
T5 construct: also called variant 8
T5 sequence (looked up): T1 sequence (looked up) with K83E, R95S

B1: TMR-E2F1^TD, peptide of the E2F1 transactivation domain (peptide)
peptide: {TMR}-GEGIRDLFDCDFGDLTPLD
notes: also called E2F^TD; source: synthetic peptide, bought: GenScript
Which Kd [1] does the source give for B1 here?
Its Kd is 365 nM.

And the Kd [2]?
The Kd was 36 nM.

What about the Kd [3] of the same binder?
Its Kd is 810 nM.

What about the Kd [4] of the same binder?
The Kd was 21 nM.

What about the Kd [5] of the same binder?
Its Kd is 27 nM.

B2: TMR-E7^LxCxE, LxCxE peptide of the E7 oncoprotein from HPV (peptide)
peptide: DLYCYEQLN
modifications: also: TMR label, position not given here
notes: source: synthetic peptide, bought: GenScript
Which results are given for B2?
Kd [1]: 5 nM; Kd [2]: 12 nM; Kd [3]: 6 nM; Kd [4]: 6 nM; Kd [5]: 11 nM
